Experimental data as given in patent publication US20140023630A1 (REGENTS OF THE UNIVERSITY OF COLORADO A BODY CORPORATE, published 2014).

B1: human CBS deletion mutant Δ442-551 (enzyme)
chain: MPSETPQAEVGPTGCPHRSGPHSAKGSLEKGSPEDKEAKEPLWIRPDAPSRCTWQLGRPASESPHHHTAPAKSPKILPDILKKIGDTPMVRINKIGKKFGLKCELLAKCEFFNAGGSVKDRISLRMIEDAERDGTLKPGDTIIEPTSGNTGIGLALAAAVRGYRCIIVMPEKMSSEKVDVLRALGAEIVRTPTNARFDSPESHVGVAWRLKNEIPNSHILDQYRNASNPLAHYDTTADEILQQCDGKLDMLVASVGTGGTITGIARKLKEKCPGCRIIGVDPEGSILAEPEELNQTEQTTYEVEGIGYDFIPTVLDRTVVDKWFKSNDEEAFTFARMLIAQEGLLCGGSAGSTVAVAVKAAQELQEGQRCVVILPDSVRNYMTKFLSDRWMLQKGFLKEEDLTEKKPWWWHLRVQELGLSAPLTVLPTITCGHTIEILREK
notes: No fusion partner, E. coli lysate; Reported as a dimer
B2: human CBS double deletion mutant Δ1-70 Δ401-551 (expressed without fusion partner) (enzyme)
chain: AKSPKILPDILKKIGDTPMVRINKIGKKFGLKCELLAKCEFFNAGGSVKDRISLRMIEDAERDGTLKPGDTIIEPTSGNTGIGLALAAAVRGYRCIIVMPEKMSSEKVDVLRALGAEIVRTPTNARFDSPESHVGVAWRLKNEIPNSHILDQYRNASNPLAHYDTTADEILQQCDGKLDMLVASVGTGGTITGIARKLKEKCPGCRIIGVDPEGSILAEPEELNQTEQTTYEVEGIGYDFIPTVLDRTVVDKWFKSNDEEAFTFARMLIAQEGLLCGGSAGSTVAVAVKAAQELQEGQRCVVILPDSVRNYMTKFLSDRWMLQKGFLKEE
notes: pKK construct; E. coli lysate; Reported as a dimer; also called CBS DD
B3: human CBS deletion mutant Δ1-70 (enzyme)
chain: AKSPKILPDILKKIGDTPMVRINKIGKKFGLKCELLAKCEFFNAGGSVKDRISLRMIEDAERDGTLKPGDTIIEPTSGNTGIGLALAAAVRGYRCIIVMPEKMSSEKVDVLRALGAEIVRTPTNARFDSPESHVGVAWRLKNEIPNSHILDQYRNASNPLAHYDTTADEILQQCDGKLDMLVASVGTGGTITGIARKLKEKCPGCRIIGVDPEGSILAEPEELNQTEQTTYEVEGIGYDFIPTVLDRTVVDKWFKSNDEEAFTFARMLIAQEGLLCGGSAGSTVAVAVKAAQELQEGQRCVVILPDSVRNYMTKFLSDRWMLQKGFLKEEDLTEKKPWWWHLRVQELGLSAPLTVLPTITCGHTIEILREKGFDQAPVVDEAGVILGMVTLGNMLSSLLAGKVQPSDQVGKVIYKQFKQIRLTDTLGRLSHILEMDHFALVVHEQIQYHSTGKSSQRQMVFGVVTAIDLLNFVAAQERDQK
notes: The sense primer brings in an Nco I site at the 5' end; No fusion partner, E. coli lysate; Reported as a tetramer; also called pKK CBS Δ1-70
B4: human CBS deletion mutant Δ414-551 (enzyme)
chain: MPSETPQAEVGPTGCPHRSGPHSAKGSLEKGSPEDKEAKEPLWIRPDAPSRCTWQLGRPASESPHHHTAPAKSPKILPDILKKIGDTPMVRINKIGKKFGLKCELLAKCEFFNAGGSVKDRISLRMIEDAERDGTLKPGDTIIEPTSGNTGIGLALAAAVRGYRCIIVMPEKMSSEKVDVLRALGAEIVRTPTNARFDSPESHVGVAWRLKNEIPNSHILDQYRNASNPLAHYDTTADEILQQCDGKLDMLVASVGTGGTITGIARKLKEKCPGCRIIGVDPEGSILAEPEELNQTEQTTYEVEGIGYDFIPTVLDRTVVDKWFKSNDEEAFTFARMLIAQEGLLCGGSAGSTVAVAVKAAQELQEGQRCVVILPDSVRNYMTKFLSDRWMLQKGFLKEEDLTEKKPWWWHLR
notes: Lacks the entire C-terminal regulatory region; No fusion partner, E. coli lysate; Reported as a dimer
B5: human CBS deletion mutant Δ489-551 (enzyme)
chain: MPSETPQAEVGPTGCPHRSGPHSAKGSLEKGSPEDKEAKEPLWIRPDAPSRCTWQLGRPASESPHHHTAPAKSPKILPDILKKIGDTPMVRINKIGKKFGLKCELLAKCEFFNAGGSVKDRISLRMIEDAERDGTLKPGDTIIEPTSGNTGIGLALAAAVRGYRCIIVMPEKMSSEKVDVLRALGAEIVRTPTNARFDSPESHVGVAWRLKNEIPNSHILDQYRNASNPLAHYDTTADEILQQCDGKLDMLVASVGTGGTITGIARKLKEKCPGCRIIGVDPEGSILAEPEELNQTEQTTYEVEGIGYDFIPTVLDRTVVDKWFKSNDEEAFTFARMLIAQEGLLCGGSAGSTVAVAVKAAQELQEGQRCVVILPDSVRNYMTKFLSDRWMLQKGFLKEEDLTEKKPWWWHLRVQELGLSAPLTVLPTITCGHTIEILREKGFDQAPVVDEAGVILGMVTLGNMLSSLLAGKVQPSDQVGKVIYKQFK
notes: as for B1
B6: human CBS deletion mutant Δ497-551 (enzyme)
chain: MPSETPQAEVGPTGCPHRSGPHSAKGSLEKGSPEDKEAKEPLWIRPDAPSRCTWQLGRPASESPHHHTAPAKSPKILPDILKKIGDTPMVRINKIGKKFGLKCELLAKCEFFNAGGSVKDRISLRMIEDAERDGTLKPGDTIIEPTSGNTGIGLALAAAVRGYRCIIVMPEKMSSEKVDVLRALGAEIVRTPTNARFDSPESHVGVAWRLKNEIPNSHILDQYRNASNPLAHYDTTADEILQQCDGKLDMLVASVGTGGTITGIARKLKEKCPGCRIIGVDPEGSILAEPEELNQTEQTTYEVEGIGYDFIPTVLDRTVVDKWFKSNDEEAFTFARMLIAQEGLLCGGSAGSTVAVAVKAAQELQEGQRCVVILPDSVRNYMTKFLSDRWMLQKGFLKEEDLTEKKPWWWHLRVQELGLSAPLTVLPTITCGHTIEILREKGFDQAPVVDEAGVILGMVTLGNMLSSLLAGKVQPSDQVGKVIYKQFKQIRLTDTL
notes: as for B1
B7: human CBS deletion mutant Δ544-551 (enzyme)
chain: MPSETPQAEVGPTGCPHRSGPHSAKGSLEKGSPEDKEAKEPLWIRPDAPSRCTWQLGRPASESPHHHTAPAKSPKILPDILKKIGDTPMVRINKIGKKFGLKCELLAKCEFFNAGGSVKDRISLRMIEDAERDGTLKPGDTIIEPTSGNTGIGLALAAAVRGYRCIIVMPEKMSSEKVDVLRALGAEIVRTPTNARFDSPESHVGVAWRLKNEIPNSHILDQYRNASNPLAHYDTTADEILQQCDGKLDMLVASVGTGGTITGIARKLKEKCPGCRIIGVDPEGSILAEPEELNQTEQTTYEVEGIGYDFIPTVLDRTVVDKWFKSNDEEAFTFARMLIAQEGLLCGGSAGSTVAVAVKAAQELQEGQRCVVILPDSVRNYMTKFLSDRWMLQKGFLKEEDLTEKKPWWWHLRVQELGLSAPLTVLPTITCGHTIEILREKGFDQAPVVDEAGVILGMVTLGNMLSSLLAGKVQPSDQVGKVIYKQFKQIRLTDTLGRLSHILEMDHFALVVHEQIQYHSTGKSSQRQMVFGVVTAIDLLNFV
notes: No fusion partner, E. coli lysate; Reported as a tetramer
B8: human CBS deletion mutant Δ551 (enzyme)
chain: MPSETPQAEVGPTGCPHRSGPHSAKGSLEKGSPEDKEAKEPLWIRPDAPSRCTWQLGRPASESPHHHTAPAKSPKILPDILKKIGDTPMVRINKIGKKFGLKCELLAKCEFFNAGGSVKDRISLRMIEDAERDGTLKPGDTIIEPTSGNTGIGLALAAAVRGYRCIIVMPEKMSSEKVDVLRALGAEIVRTPTNARFDSPESHVGVAWRLKNEIPNSHILDQYRNASNPLAHYDTTADEILQQCDGKLDMLVASVGTGGTITGIARKLKEKCPGCRIIGVDPEGSILAEPEELNQTEQTTYEVEGIGYDFIPTVLDRTVVDKWFKSNDEEAFTFARMLIAQEGLLCGGSAGSTVAVAVKAAQELQEGQRCVVILPDSVRNYMTKFLSDRWMLQKGFLKEEDLTEKKPWWWHLRVQELGLSAPLTVLPTITCGHTIEILREKGFDQAPVVDEAGVILGMVTLGNMLSSLLAGKVQPSDQVGKVIYKQFKQIRLTDTLGRLSHILEMDHFALVVHEQIQYHSTGKSSQRQMVFGVVTAIDLLNFVAAQERDQ
notes: Lacks the C-terminal lysine; No fusion partner, E. coli lysate; Reported as a tetramer; also called pKK CBS Δ551
B9: human CBS deletion mutant Δ1-39 (enzyme)
chain: EPLWIRPDAPSRCTWQLGRPASESPHHHTAPAKSPKILPDILKKIGDTPMVRINKIGKKFGLKCELLAKCEFFNAGGSVKDRISLRMIEDAERDGTLKPGDTIIEPTSGNTGIGLALAAAVRGYRCIIVMPEKMSSEKVDVLRALGAEIVRTPTNARFDSPESHVGVAWRLKNEIPNSHILDQYRNASNPLAHYDTTADEILQQCDGKLDMLVASVGTGGTITGIARKLKEKCPGCRIIGVDPEGSILAEPEELNQTEQTTYEVEGIGYDFIPTVLDRTVVDKWFKSNDEEAFTFARMLIAQEGLLCGGSAGSTVAVAVKAAQELQEGQRCVVILPDSVRNYMTKFLSDRWMLQKGFLKEEDLTEKKPWWWHLRVQELGLSAPLTVLPTITCGHTIEILREKGFDQAPVVDEAGVILGMVTLGNMLSSLLAGKVQPSDQVGKVIYKQFKQIRLTDTLGRLSHILEMDHFALVVHEQIQYHSTGKSSQRQMVFGVVTAIDLLNFVAAQERDQK
notes: The sense primer brings in an Nco I site at the 5' end; No fusion partner, E. coli lysate; Reported as a tetramer; also called pKK CBS Δ1-39

Target: the molecule itself
Test: self-association; native PAGE and Western blot of E. coli lysate soluble fraction
Method: Western blot analysis of crude cell lysates under both denaturing and native conditions was performed as described previously (Janosik, 2001, supra) with some modifications. Soluble fractions of E. coli lysates containing the expressed mutant proteins were mixed with sample buffer and run on a 6% native PAGE without a stacking gel. The final composition of the sample buffer was: 50 mM Tris-HCl, pH 8.9, 1 mM DTT, 10% glycerol, 0.001% bromphenol blue. Detection of heme was performed using a previously described method that relies on heme peroxidase activity (Vargas et al., 1993, Anal. Biochem. 209(2), 323-6).

Binding result, binds:
B1
B2
B3
B4
B5
B6
B7
B8
B9
